The text below walks through data of patent US8008547B2, “Glyphosate-N-acetyltransferase (GAT) genes” (E.I. duPont de Nemours, priority 2000, dated 2011).

This series in a line: Standard protocol for determination of kcat and KM (continuous spectrophotometric assay, Acetyl CoA hydrolysis at 235 nm). It counts as biochemical. The conditions noted are these: purified protein, about 23° C., 0.2 mM acetyl CoA; for Kcat: 20 mM HEPES pH 6.8, 10% ethylene glycol; for Km: pH 6.8, glyphosate 0.125 to 10 mM. In outline: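 KM from initial rates over 0.125–10 mM glyphosate, fitted by Lineweaver-Burke transformation of Michaelis-Menten; kcat/KM computed as kcat divided by KM. Continuous spectrophotometric read of acetyl-CoA hydrolysis at 235 nm.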

B1: SEQ ID NO: 327: GAT polypeptide (protein)
chain: MIEVKPINAEDTYEIRHRILRPNQPLEACKYETDLLRGAFHLGGYYRGKLVSIASFNQAEHPELEGQKQYQLRGMATLEGYREQKAGSTLIRHAEELLRRKGADLLWCNARTSASGYYKKLGFSEQGEVYDIPPTGPHILMYKKLT
modifications: 15_11F9
notes: GAT polypeptide
With B1, the Kcat was 76.4 min⁻¹ and the Michaelis constant (Km) came out at 1 mM.

B2: SEQ ID NO: 335: GAT polypeptide (protein)
chain: MIEVKPINAEDTYKIRHRILRPNQPLEACMYETDLLGGTFHLGGYYRGKLVSIASFNQAEHPELEGQKQYQLRGMATLEGYREQKAGSTLIRHAEALLRKKGADLLWCNARTSASGYYKKLGFSEQGEVYDIPPTGPHILMYKKLT
modifications: 15_4F11
notes: GAT polypeptide
For B2, the Kcat came to 80.3 min⁻¹ and the Km is 0.9 mM.

B3: SEQ ID NO: 332: GAT polypeptide (protein)
chain: MIEVKPINAEDTYEIRHRILRPNQPLEACKYETDLLRGTFHLGGYYRGKLVSIASFHQAEHPELEGQKQYQLRGMATLEEYREQKAGSTLIRHAEELLRKKGADLLWCNARTSASGYYKKLGFSEQGEVYDIPPVGPHILMYKKLT
modifications: 15_12D9
notes: GAT polypeptide
Take B3: the Kcat was 59.7 min⁻¹ and the Km worked out at 1.4 mM.

B4: SEQ ID NO: 336: GAT polypeptide (protein)
chain: MIEVKPINAEDTYEIRHRILRPNQPLEACKYETDLLGGTFHLGGYYRGKLVSIASFHQAEHPELEGQKQYQLRGMATLEEYREQKAGSTLIRHAEELLRKKGADLLWCNARTSASGYYKKLGFSEQGEVYDIPPTGPHILMYKKLT
modifications: 15_4H3
notes: GAT polypeptide
As for B4, the Kcat turned out to be 93.3 min⁻¹ and the Michaelis-Menten constant (Km) was found to be 1 mM.

B5: SEQ ID NO: 338: GAT polypeptide (protein)
chain: MIEVKPINAEDTYEIRHRILRPNQPLEACKYETDLLRGAFHLGGYYRGKLVSIASFHQAEHPELEGQKQYQLRGMATLEEYREQKAGSTLIRHAEELLRKKGADLLWCNARTSASGYYKKLGFSEQGKVYDIPPVGPHILMYKKLT
modifications: 15_6G11
notes: GAT polypeptide
Consider B5, for which the Kcat came out at 36.9 min⁻¹ and the Km was 0.9 mM.

B6: SEQ ID NO: 264: GAT polypeptide (protein)
chain: MIEVKPINAEDTYEIRHRILRPNQPLEACKYETDLLRGAFHLGGYYRGKLVSIASFHQAEHPELEGQRQYQLRGMATLEGYREQKAGSTLIRHAEELLRKKGADLLWCNARTSASGYYKKLGFSEQGEVYDIPPTGPHILMYKKLT
modifications: 13_12G6
notes: GAT polypeptide
B6: the Kcat came to 52.1 min⁻¹ and the Km came to 1.2 mM.

B7: SEQ ID NO: 329: GAT polypeptide (protein)
chain: MIEVKPINAEDTYEIRHRILRPNQPLEACKYETDLLGGTFHLGGYYRGKLISIASFHQAEHPELEGQKQYQLRGMATLEGYREQKAGSTLIRHAEALLRKKGADLLWCNARTSASGYYKKLGFSEQGEVYDIPPTGPHILMYKKLT
modifications: 15_12A8
notes: GAT polypeptide
As to B7, the Kcat was 77.1 min⁻¹ and the Km came out at 1.6 mM.

B8: SEQ ID NO: 334: GAT polypeptide (protein)
chain: MIEVKPINAEDTYEIRHRILRPNQPLEACKYETDLLGGTFHLGGYYRGKLVSIASFHQAEHPELEGQKQYQLRGMATLEEYREQKAGSTLIRHAEELLRKKGADLLWCNARTSASGYYKKLGFSEQGEVYDIPPVGPHILMYKKLT
modifications: 15_3G11
notes: GAT polypeptide
For B8, the Kcat is 71.5 min⁻¹ and the Michaelis-Menten constant (Km) came to 1.2 mM.

B9: SEQ ID NO: 328: GAT polypeptide (protein)
chain: MIEVKPINAEDTYEIRHRILRPNQPLEACKYETDLLRGAFHLGGYYRGKLISIASFHQAEHPELEGQKQYQLRGMATLEGYREQKAGSTLIRHAEALLRKKGADLLWCNARTSASGYYKKLGFSEQGEVYDIPPTGPHILMYKKLT
modifications: 15_11H3
notes: GAT polypeptide
On to B9, for which the Kcat worked out at 61.9 min⁻¹ and the Km came out at 1 mM.

B10: SEQ ID NO: 330: GAT polypeptide (protein)
chain: MIEVKPINAEDTYEIRHRILRPNQPLEACMYETDLLRGAFHLGGYYRGKLVSIASFHQAEHPELEGQKQYQLRGMATLEGYREQKAGSTLIRHAEELLRKKGADLLWCNARTSASGYYKKLGFSEQGEVYDTPPVGPHILMYKKLT
modifications: 15_12D6
notes: GAT polypeptide
On to B10, for which the Kcat was 148.6 min⁻¹ and the Michaelis-Menten constant (Km) amounted to 0.74 mM.

B11: SEQ ID NO: 331: GAT polypeptide (protein)
chain: MIEVKPINAEDTYEIRHRILRPNQPLEACKYETDLLGGTFHLGGYYRGKLVSIASFHQAEHPELEGQKQYQLRGMATLEGYREQKAGSTLIRHAEELLRKKGADLLWCNARTSASGYYKKLGFSEQGKVYDIPPVGPHILMYKKLT
modifications: 15_12D8
notes: GAT polypeptide
In the case of B11, the Kcat was found to be 59.7 min⁻¹ and the Michaelis constant (Km) is 1.3 mM.

B12: SEQ ID NO: 333: GAT polypeptide (protein)
chain: MIEVKPINAEDTYEIRHRILRPNQPLEACKYETDLLRGAFHLGGYYRGKLISIVSFHQAEHPELEGQKQYQLRGMATLEGYREQKAGSTLIRHAEELLRKKGADLLWCNARTSASGYYKKLGFSEQGEVYDTPPAGPHILMYTKLT
modifications: 15_3F10
notes: GAT polypeptide
For the molecule B12, the Kcat turned out to be 48.7 min⁻¹ and the Km was found to be 0.9 mM.

B13: SEQ ID NO: 337: GAT polypeptide (protein)
chain: MIEVKPINAEDTYEIRHRILRPNQPLEACKYETDLLGGTFHLGGYYRGKLISIASFHQAEHPELEGQKQYQLRGMATLEEYREQKAGSTLIRHAEELLRKKGADLLWCNARTSASGYYKKLGFSEQGEVYDIPPTGPHILMYKKLT
modifications: 15_6D3
notes: GAT polypeptide
Regarding B13, the Kcat was found to be 85.9 min⁻¹ and the Km was 1.4 mM.

B14: SEQ ID NO: 339: GAT polypeptide (protein)
chain: MIEVKPINAEDTYEIRHRILRPNQPLEACKYETDLLGGTFHLGGYYRGKLISIASFHQAEHPELEGQKQYQLRGMATLEEYREQKAGSTLIRHAEELLRRKGADLLWCNARTSASGYYKKLGFSEQGEVYDIPPVGPHILMYKKLT
modifications: 15_9F6
notes: GAT polypeptide
For B14, the Kcat turned out to be 59.6 min⁻¹ and the Km worked out at 1.1 mM.

B15: SEQ ID NO: 340: GAT polypeptide (protein)
chain: MIEVKPINAEDTYEIRHRILRPNQPLEACKYETDLLGGTFHLGGYYRGKLISIASFHKAEHSELEGEEQYQLRGMATLEGYREQKAGSTLIRYAEELLRKKGADLLWCNARTSVSGYYKKLGFSEQGEVYDIPPIGPHILMYKKLT
modifications: 15F5
notes: GAT polypeptide
Take B15: the Kcat stood at 0.5 min⁻¹ and the Michaelis-Menten constant (Km) came out at 2.9 mM.

B16: SEQ ID NO: 341: GAT polypeptide (protein)
chain: MIEVKPINAEDTYEIRHRILRPNQPLEACMYETDLLGGTLHLGGYYQGKLISIASFHKAEHSGLEGEEQYQLRGMATLEGYREQKAGSTLIRHAEELLRKKGADLLWCNARTSVSGYYEKLGFSEQGEVYDIPPIGPHILMYKKLT
modifications: 16A1
notes: GAT polypeptide
With B16, the Kcat was determined as 10.4 min⁻¹ and the Michaelis constant (Km) worked out at 2.9 mM.

One may read the Km as the concentration of substrate that gives half-maximal velocity.
